Measured values from the Human Domainome abundance scans (Beltran et al. 2025).

B1: POU domain, class 4, transcription factor 2, residues 256 to 327; numbered along this chain, Q12837 (parent)
chain: RDLEAFAERFKQRRIKLGVTQADVGSALANLKIPGVGSLSQSTICRFESLTLSHNNMIALKPILQAWLEEAE

Variants of: B1
Experiment: abundance fitness (aPCA) (normalised: wild type 0, dead -1); higher = more abundant; growth selection in yeast, the domain comes from the species named
Details: Homo sapiens

Abundance fitness of substitutions, site by site:
L60: R -0.607; Y -0.081; G -0.713; T -0.436; I 0.201; W -0.729; H -0.944; E -0.866; A -0.147; P -0.971; F -0.29; Q -0.843; M -0.038; D -0.614; S -0.77; C -0.12; N -0.682
T51: M 0.077; Y -0.567; H -0.232; E -0.059; A -0.035; R -0.111; G -0.181; K 0.264; V -0.367; C -0.077; W -0.78; F -0.414; L -0.256; P -1.08; S 0.018; D -0.295; Q -0.041
I58: M -0.118; F -0.287; C -0.374; A -0.139; K 0.063; R 0.07; E -0.258; P -0.854; T -0.235; W -0.152; N -0.077; V -0.028; D -0.615; G -0.287; L 0.02; H -0.237; Y -0.461; S -0.017
N56: F -0.149; P -0.52; S 0.077; R -0.134; K 0.048; Y -0.248; Q 0.275; H 0.128; L 0.07; A -0.041; G -0.024; V 0.083; D 0.281; W -0.057; T -0.023; M -0.304; C 0.146
I44: M -0.87; K -0.065; D -0.771; A -1; R -0.973; Y -0.019; L -0.392; S -0.963; F -0.913; E -0.652; C -0.643; W -1.03; P -0.923; V -0.168
E48: S -0.644; R -0.463; P -0.889; L -0.93; H -0.818; G -0.594; Q -0.833; A -0.802; V -1.17; W -1.09
L52: F -0.682; G -0.679; R -0.883; M -0.324; H -0.729; N -0.997; K -0.163; A -0.822; D -0.472; P -0.887; W -0.952; T -0.683; S -0.849; E -0.732; Q -1.08
F47: V -1.06; Y -0.53; A -0.278; D -0.82; T -0.922; C -0.214; R -0.864; I -0.67; N -0.871; M -0.781; Q -0.59; G -0.834; P -0.897; W -0.836; S -0.996
A59: L -0.091; Q 0.062; V -0.207; H -0.249; W -0.087; Y -0.026; C -0.431; T -0.038; R -0.032; G -0.169; S -0.095; M -0.003; K -0.057; I 0.027; E -0.193
S40: H -0.228; G 0.014; N -0.108; E -0.15; P -0.193; R -0.312; Q -0.293; W -0.779; L -0.671; T 0.092; M -0.723; Y -0.685; V -0.385
S49: R 0.032; T -0.035; P -0.537; I -1.03; K 0.069; M -0.492; C -0.245; W -0.485; E 0.134; N -0.065; F -0.651; D -0.106; H -0.587; G 0.055; L -0.297
T43: H -0.274
